Experimental data as given in article PMC2198996.

Molecular target: HA1.7 TCR-β chain (human)
Test: co-IP

- stoichiometry N: 1
Substance: HA1.7 TCR-α chain
